Measured values reported in patent US20220259289A1 (Janssen / Centocor, published 2022).
Positions count from the first letter of the chain named.

B1: ISOP120AR5P1D2 (designed binder, not shown: small tags and cut ends)
chain: LPAPKNLVVSRVTEDSARLSWDFAYFKFDSFLIQYQESEKVGEAIVLTVPGSERSYDLTGLKPGTEYTVSIYGVGRFYTVYYSNPLSAIFTT
notes: FN3 domain (Centyrin); tested as E. coli lysate
B2: ISOP120AR5P1C4 (designed binder, not shown: small tags and cut ends)
chain: B1 chain with D22A, A24Q, Y25W, F26H, K27I, R76Q, F77P, Y82D
notes: as for B1
B3: ISOP120AR5P1C5 (designed binder, not shown: small tags and cut ends)
chain: B1 chain with D22T, F23L, A24P, Y25N, F26I, K27H, F77H, Y82D
notes: as for B1
B4: ISOP120HR5P1A6 (designed binder, not shown: small tags and cut ends)
chain: LPAPKNLVVSRVTEDSARLSWTAPDGAFDSFEIYYLEGGRGEAIVLTVPGSERSYDLTGLKPGTEYLVTIYGIKCGWASNPLSAIFTT
notes: as for B1
B5: ISOP120GR5P1B11 (designed binder, not shown: small tags and cut ends)
chain: LPAPKNLVVSRVTEDSARLSWTAPDAAFDSFNIKYWEANLYGEAIVLTVPGSERSYGLTGLKPGTEYRVHIRGVKGGINSFPLVAVFTT
notes: as for B1
B6: ISOP120AR5P1B5 (designed binder, not shown: small tags and cut ends)
chain: LPAPKNLVVSRVTEDYARLSWKYGEHIIWFDSFLIQYQESEKVGEAIVLTVPGSERSYDLTGLKPGTEYTVSIYGVKGQHDHDSNPLSAIFTT
notes: as for B1
B7: ISOP120AR5P1H3 (designed binder, not shown: small tags and cut ends)
chain: LPAPKNLVVSRVTEDSARLSWKWISHEPLEFDSFLIQYQESEKVGEAIVLTVPGSERSYDLTGLKPGTEYTVSIYGVGRHYTVYDSNPLSAIFTT
notes: as for B1
B8: ISOP120GR5P1A11 (designed binder, not shown: small tags and cut ends)
chain: LPAPKNLVVSRVTEDSARLSWTAPDAAFDSFGIPYWEWTTEGEAIQLIVPGSERSYDLTGLKPATEYHVHIVGVKGGSFSEPLPADFTT
notes: as for B1
B9: ISOP120HR5P1H7 (designed binder, not shown: small tags and cut ends)
chain: LPAPKNLVVSRVTEDSARLSWTAPDAAFDSFDIYYGEPGNLGEAIVLTVPGSERSYDLTGLKPGTEYLVTIYGVKGGDYSSPLSAIFTT
notes: as for B1
B10: ISOP120ER5P1A8 (designed binder, not shown: small tags and cut ends)
chain: B9 chain with G36F, P38H, G39P, N40V, L41G, D78Y, Y79L, S81M
notes: as for B1
B11: ISOP120FR5P1A11 (designed binder, not shown: small tags and cut ends)
chain: B9 chain with D32T, G36F, P38N, G39E, L41G, D78H, Y79W, S81R
notes: as for B1
B12: ISOP120HR5P1B4 (designed binder, not shown: small tags and cut ends)
chain: B9 chain with D32S, P38Y, G39Y, L68V, D78G, S81N
notes: as for B1
B13: ISOP120HR5P1A3 (designed binder, not shown: small tags and cut ends)
chain: B9 chain with D32E, G36A, P38F, N40Y, L41Y, L68T, D78W, S81T
notes: as for B1
B14: ISOP120ER5P1B6 (designed binder, not shown: small tags and cut ends)
chain: B9 chain with P38H, G39W, N40K, P50Q, D78Q, Y79W, S81F
notes: as for B1
B15: ISOP120ER5P1H6 (designed binder, not shown: small tags and cut ends)
chain: B9 chain with D32S, P38W, G39H, N40A, L68V, D78T, S81L
notes: as for B1
B16: ISOP120ER5P1B4 (designed binder, not shown: small tags and cut ends)
chain: B9 chain with D32S, Y34L, G39P, N40A, L68W, D78V, Y79F, S81H
notes: as for B1
B17: ISOP120FR5P1H5 (designed binder, not shown: small tags and cut ends)
chain: LPAPKNLVVSRVTEDSARLSWTAPDAAFDSLQIYYFEWVVGGEAIVLTVPGSERSYDLTGLKLGTEYLVTIYGVKGGNFSDPLSAIFTT
notes: as for B1
B18: ISOP120HR5P1F9 (designed binder, not shown: small tags and cut ends)
chain: B9 chain with D32Y, G36R, P38H, G39W, N40T, L41I, D78A, S81N
notes: as for B1
B19: ISOP120ER5P1A11 (designed binder, not shown: small tags and cut ends)
chain: B9 chain with D32E, G36K, P38L, G39R, N40A, L41E, D78S, Y79V, S81I
notes: as for B1
B20: ISOP120HR5P1H8 (designed binder, not shown: small tags and cut ends)
chain: B9 chain with G36Y, P38L, G39R, N40L, L41G, D78Y, S81G
notes: as for B1
B21: ISOP120HR5P1H4 (designed binder, not shown: small tags and cut ends)
chain: B9 chain with Y34L, G36L, G39Y, N40Q, L41E, D78Y, S81L
notes: as for B1
B22: ISOP120FR5P1C2 (designed binder, not shown: small tags and cut ends)
chain: B9 chain with Y34N, G36F, P38Q, G39P, N40K, L41G, D78P, S81P
notes: as for B1
B23: ISOP120HR5P1D7 (designed binder, not shown: small tags and cut ends)
chain: B9 chain with G36L, P38S, G39W, N40T, L41R, D78S, S81R
notes: as for B1
B24: ISOP120HR5P1A7 (designed binder, not shown: small tags and cut ends)
chain: B9 chain with D32E, G36A, G39R, N40Y, L41Y, L68T, D78Y
notes: as for B1
B25: ISOP120HR5P1D9 (designed binder, not shown: small tags and cut ends)
chain: B9 chain with G36R, P38L, G39D, N40F, L41Q, T70I, D78S, S81Y, P82T
notes: as for B1
B26: ISOP120ER5P1C6 (designed binder, not shown: small tags and cut ends)
chain: B9 chain with D32S, P38W, G39H, N40A, L68V, D78T, S81L, F87S
notes: as for B1
B27: ISOP120HR5P1G4 (designed binder, not shown: small tags and cut ends)
chain: B9 chain with D32E, G36R, P38Y, G39W, N40Y, L41S, D78W, S81D
notes: as for B1
B28: ISOP120FR5P1F1 (designed binder, not shown: small tags and cut ends)
chain: B9 chain with D32T, G36F, P38N, G39E, L41G, G77C, Y79W, S81D
notes: as for B1
B29: ISOP120HR5P1G6 (designed binder, not shown: small tags and cut ends)
chain: B9 chain with D32E, G36F, P38L, G39R, N40L, L41G, D78L, Y79D, S81Q
notes: as for B1
B30: ISOP120GR5P1H11 (designed binder, not shown: small tags and cut ends)
chain: LPAPKNLVVSRVTEDSARLSWTAPDAAFDSFYIAYWEYWGNGEAIGLIVPGSERSYDLTGLKPGTEYHVHIVGVKGGAGSVPLWANFTT
notes: as for B1
B31: ISOP120GR5P1A10 (designed binder, not shown: small tags and cut ends)
chain: LPAPKNLVVSRVTEDSARLSWTAPDAAFDSFEIPYIEVETIGEAIWLHVPGSERSYDLTGLKPGTEYSVGINGVKGGHTSNPLSARFTT
notes: as for B1
B32: ISOP120GR5P1C10 (designed binder, not shown: small tags and cut ends)
chain: B31 chain with A26G
notes: as for B1

Key:
Assay in all cases: ELISA, bacterial lysate on plate-bound antigen, luminescence
[1] = target: unrelated Fc-fused recombinant protein (negative control)
[2] = target: T1, recombinant biotinylated human CD137 protein (Fc-fusion protein, R&D Systems 838-4B) (human, UniProt Q07011 24-186, biotinylated (site not stated))
T1 construct: Bought Fc fusion; The ELISA used the same antigen as the panning; also called CD137-Fc; biotinylated CD137; not shown: Fc part of the bought fusion protein
Method: (§1) Streptavidin-coated Maxisorp plates (Nunc catalog 436110) were blocked for 1 h in Starting Block T20 (Pierce) and then coated with biotinylated CD137 (using same antigen as in panning) or negative controls (an unrelated Fc-fused recombinant protein and human serum albumin) for 1 h. Plates were rinsed with TBST and diluted lysate was applied to plates for 1 h. Following additional rinses, wells were treated with HRP-conjugated anti-Centyrin antibody (PAB25) for 1 h and then assayed with POD (Roche catalog 11582950001).

human serum albumin = target: T2, human serum albumin (human, UniProt P02768 25-609)
T2 construct: Negative control antigen of the screening ELISA; also called HSA
T2 sequence (P02768 25-609 limits assumed): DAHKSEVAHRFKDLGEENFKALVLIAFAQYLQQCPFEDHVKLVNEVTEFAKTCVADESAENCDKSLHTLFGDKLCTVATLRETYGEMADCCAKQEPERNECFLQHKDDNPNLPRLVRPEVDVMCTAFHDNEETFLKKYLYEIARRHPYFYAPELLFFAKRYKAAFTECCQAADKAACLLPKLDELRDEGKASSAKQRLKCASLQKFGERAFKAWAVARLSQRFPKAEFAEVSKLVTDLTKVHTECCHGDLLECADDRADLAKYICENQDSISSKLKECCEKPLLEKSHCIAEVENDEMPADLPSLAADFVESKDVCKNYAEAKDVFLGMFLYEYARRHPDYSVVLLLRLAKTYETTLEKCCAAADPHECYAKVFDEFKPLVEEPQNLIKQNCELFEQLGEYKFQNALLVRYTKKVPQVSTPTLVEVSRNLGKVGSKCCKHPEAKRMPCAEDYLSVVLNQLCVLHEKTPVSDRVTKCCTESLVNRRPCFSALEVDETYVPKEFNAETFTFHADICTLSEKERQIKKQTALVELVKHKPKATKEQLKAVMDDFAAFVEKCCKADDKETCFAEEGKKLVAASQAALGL
Method: as §1

| ELISA Fc Control (RLU) [1] [RLU] | ELISA CD137-Fc (RLU) [2] [RLU] | ELISA HSA (RLU) (human serum albumin) | Binder |
| --- | --- | --- | --- |
| 640 | 908000 | 640 | B1 |
| 320 | 708000 | 240 | B2 |
| 320 | 425000 | 160 | B3 |
| 640 | 1.29e+06 | 400 | B4 |
| 320 | 875000 | 160 | B5 |
| 400 | 501000 | 320 | B6 |
| 400 | 769000 | 480 | B7 |
| 480 | 1.05e+06 | 320 | B8 |
| 640 | 1.53e+06 | 480 | B9 |
| 400 | 1.9e+06 | 320 | B10 |
| 480 | 920000 | 480 | B11 |
| 320 | 1.19e+06 | 320 | B12 |
| 560 | 1.08e+06 | 240 | B13 |
| 160 | 1.35e+06 | 400 | B14 |
| 320 | 589000 | 480 | B15 |
| 400 | 499000 | 400 | B16 |

| ELISA Fc Control (RLU) [1] [RLU] | ELISA CD137-Fc (RLU) [2] [RLU] | ELISA HSA (RLU) (human serum albumin) | Binder |
| --- | --- | --- | --- |
| 400 | 460000 | 560 | B17 |
| 400 | 1.18e+06 | 400 | B18 |
| 320 | 1.14e+06 | 320 | B19 |
| 320 | 2.22e+06 | 400 | B20 |
| 480 | 630000 | 320 | B21 |
| 240 | 389000 | 400 | B22 |
| 320 | 1.1e+06 | 320 | B23 |
| 400 | 987000 | 480 | B24 |
| 480 | 405000 | 400 | B25 |
| 320 | 495000 | 400 | B26 |
| 320 | 347000 | 480 | B27 |
| 480 | 1.23e+06 | 640 | B28 |
| 400 | 2.04e+06 | 320 | B29 |
| 640 | 1.31e+06 | 320 | B30 |
| 400 | 627000 | 400 | B31 |
| 240 | 502000 | 480 | B32 |
